One block for each binder: values may come before it. *1 amine or outer side, *2 acyl side, *3 side chain or, on linkers, in order; H or OH if unused. Side-chain parts run from the residue outwards. The star is where a group is joined. C18 diacid = O=C(O)CCCCCCCCCCCCCCCCC(=O)*; γGlu = O=C(O)[C@H](CCC(=O)[*:2])N[*:1]; Isovaleryl = CC(C)CC(=O)*; AEEA = NCCOCCOCC(=O)O
Target: T1, human neuropeptide Y2 receptor (human, UniProt P49146 1-381)
T1 construct: whole, on cells; also called hNPY2 receptor; hNPY2-R
T1 sequence (looked up): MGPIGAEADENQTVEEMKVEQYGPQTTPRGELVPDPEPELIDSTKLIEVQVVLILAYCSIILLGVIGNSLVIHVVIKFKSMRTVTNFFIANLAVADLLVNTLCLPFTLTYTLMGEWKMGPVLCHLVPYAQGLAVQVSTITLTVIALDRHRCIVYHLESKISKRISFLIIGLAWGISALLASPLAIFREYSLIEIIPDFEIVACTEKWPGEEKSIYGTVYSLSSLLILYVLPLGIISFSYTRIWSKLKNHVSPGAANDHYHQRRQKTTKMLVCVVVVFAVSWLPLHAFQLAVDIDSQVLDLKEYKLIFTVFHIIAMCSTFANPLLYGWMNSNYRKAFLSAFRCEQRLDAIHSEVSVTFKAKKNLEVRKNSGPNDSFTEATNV
Assay: radioligand competition (125I-PYY(1-36)), hNPY2R membranes
Description: The filtration RLB assay was carried out in 96-well plates in a final volume of 100 μl per well. Freeze-dried test peptides were dissolved in 100% dimethyl sulfoxide (DMSO) to stock solutions of 1 mM and serial dilutions were performed in assay buffer (50 mM HEPES, 5 mM MgCl₂, 1 mM CaCl₂, pH 7.4) containing 0.2% ovalbumin. […] Next, 80 μL membranes (HTS066M, ChemiSCREEN™ Human Neuropeptide Y2 Receptor Membrane Preparation, CHEMICON) were added to each well to give a final protein concentration of 0.5 μg/well. The plates were sealed and incubated at room temperature for 2 hours in a plate shaker set at 400 rpm. The incubation was stopped by vacuum filtration onto 0.5% poly-ethylene amine (PEI) presoaked GF/C filters using a 96-well FilterMate™ harvester (Perkin Elmer) followed by four washes with 300 μl/well ice-cold wash buffer (50 mM HEPES, 500 mM NaCl, pH7.4). Filter plates were then dried for 60 min at room temperature and the bottom of the plates was sealed with backing tape UniFilter-96. Finally, 50 μl/well scintillation counter cocktail (Microscint20, Packard) was added and the radioactivity was counted in the Packard TopCount NXT scintillation counter. IC₅₀ values (the half maximal inhibitory concentration of the agonist) were calculated by nonlinear regression analysis of sigmoidal dose-response curves.

B2: Compound 19 (peptide)
peptide: Isovaleryl-APEK([AEEA-AEEA-γGlu-C18 diacid])PEADASPEELQQYYVSLRHYYNWLTRQRY-NH2
SMILES: CC(C)CC(=O)N[C@@H](C)C(=O)N1CCC[C@H]1C(=O)N[C@@H](CCC(=O)O)C(=O)N[C@@H](CCCCNC(=O)COCCOCCNC(=O)COCCOCCNC(=O)CC[C@H](NC(=O)CCCCCCCCCCCCCCCCC(=O)O)C(=O)O)C(=O)N1CCC[C@H]1C(=O)N[C@@H](CCC(=O)O)C(=O)N[C@@H](C)C(=O)N[C@@H](CC(=O)O)C(=O)N[C@@H](C)C(=O)N[C@@H](CO)C(=O)N1CCC[C@H]1C(=O)N[C@@H](CCC(=O)O)C(=O)N[C@@H](CCC(=O)O)C(=O)N[C@@H](CC(C)C)C(=O)N[C@@H](CCC(N)=O)C(=O)N[C@@H](CCC(N)=O)C(=O)N[C@@H](Cc1ccc(O)cc1)C(=O)N[C@@H](Cc1ccc(O)cc1)C(=O)N[C@H](C(=O)N[C@@H](CO)C(=O)N[C@@H](CC(C)C)C(=O)N[C@@H](CCCNC(=N)N)C(=O)N[C@@H](Cc1c[nH]cn1)C(=O)N[C@@H](Cc1ccc(O)cc1)C(=O)N[C@@H](Cc1ccc(O)cc1)C(=O)N[C@@H](CC(N)=O)C(=O)N[C@@H](Cc1c[nH]c2ccccc12)C(=O)N[C@@H](CC(C)C)C(=O)N[C@H](C(=O)N[C@@H](CCCNC(=N)N)C(=O)N[C@@H](CCC(N)=O)C(=O)N[C@@H](CCCNC(=N)N)C(=O)N[C@@H](Cc1ccc(O)cc1)C(N)=O)[C@@H](C)O)C(C)C
Ki: 0.39 nM

B3: Compound 20 (peptide)
peptide: Isovaleryl-APEK([AEEA-AEEA-γGlu-C18 diacid])PEEDAAPEELQRYYVELRHYYNWLTRQRY-NH2
SMILES: CC(C)CC(=O)N[C@@H](C)C(=O)N1CCC[C@H]1C(=O)N[C@@H](CCC(=O)O)C(=O)N[C@@H](CCCCNC(=O)COCCOCCNC(=O)COCCOCCNC(=O)CC[C@H](NC(=O)CCCCCCCCCCCCCCCCC(=O)O)C(=O)O)C(=O)N1CCC[C@H]1C(=O)N[C@@H](CCC(=O)O)C(=O)N[C@@H](CCC(=O)O)C(=O)N[C@@H](CC(=O)O)C(=O)N[C@@H](C)C(=O)N[C@@H](C)C(=O)N1CCC[C@H]1C(=O)N[C@@H](CCC(=O)O)C(=O)N[C@@H](CCC(=O)O)C(=O)N[C@@H](CC(C)C)C(=O)N[C@@H](CCC(N)=O)C(=O)N[C@@H](CCCNC(=N)N)C(=O)N[C@@H](Cc1ccc(O)cc1)C(=O)N[C@@H](Cc1ccc(O)cc1)C(=O)N[C@H](C(=O)N[C@@H](CCC(=O)O)C(=O)N[C@@H](CC(C)C)C(=O)N[C@@H](CCCNC(=N)N)C(=O)N[C@@H](Cc1c[nH]cn1)C(=O)N[C@@H](Cc1ccc(O)cc1)C(=O)N[C@@H](Cc1ccc(O)cc1)C(=O)N[C@@H](CC(N)=O)C(=O)N[C@@H](Cc1c[nH]c2ccccc12)C(=O)N[C@@H](CC(C)C)C(=O)N[C@H](C(=O)N[C@@H](CCCNC(=N)N)C(=O)N[C@@H](CCC(N)=O)C(=O)N[C@@H](CCCNC(=N)N)C(=O)N[C@@H](Cc1ccc(O)cc1)C(N)=O)[C@@H](C)O)C(C)C
Ki: 2.57 nM

B5: Compound 21 (peptide)
peptide: Isovaleryl-APEK([AEEA-AEEA-γGlu-C18 diacid])PEEDASPEELQKYYVSLRHYYNWLTRQRY-NH2
SMILES: CC(C)CC(=O)N[C@@H](C)C(=O)N1CCC[C@H]1C(=O)N[C@@H](CCC(=O)O)C(=O)N[C@@H](CCCCNC(=O)COCCOCCNC(=O)COCCOCCNC(=O)CC[C@H](NC(=O)CCCCCCCCCCCCCCCCC(=O)O)C(=O)O)C(=O)N1CCC[C@H]1C(=O)N[C@@H](CCC(=O)O)C(=O)N[C@@H](CCC(=O)O)C(=O)N[C@@H](CC(=O)O)C(=O)N[C@@H](C)C(=O)N[C@@H](CO)C(=O)N1CCC[C@H]1C(=O)N[C@@H](CCC(=O)O)C(=O)N[C@@H](CCC(=O)O)C(=O)N[C@@H](CC(C)C)C(=O)N[C@@H](CCC(N)=O)C(=O)N[C@@H](CCCCN)C(=O)N[C@@H](Cc1ccc(O)cc1)C(=O)N[C@@H](Cc1ccc(O)cc1)C(=O)N[C@H](C(=O)N[C@@H](CO)C(=O)N[C@@H](CC(C)C)C(=O)N[C@@H](CCCNC(=N)N)C(=O)N[C@@H](Cc1c[nH]cn1)C(=O)N[C@@H](Cc1ccc(O)cc1)C(=O)N[C@@H](Cc1ccc(O)cc1)C(=O)N[C@@H](CC(N)=O)C(=O)N[C@@H](Cc1c[nH]c2ccccc12)C(=O)N[C@@H](CC(C)C)C(=O)N[C@H](C(=O)N[C@@H](CCCNC(=N)N)C(=O)N[C@@H](CCC(N)=O)C(=O)N[C@@H](CCCNC(=N)N)C(=O)N[C@@H](Cc1ccc(O)cc1)C(N)=O)[C@@H](C)O)C(C)C
Ki: 1.52 nM

B6: Compound 24 (peptide)
peptide: Isovaleryl-APEK([AEEA-AEEA-γGlu-C18 diacid])PEEDASPEELQRYYVSLRKYYNWLTRQRY-NH2
SMILES: CC(C)CC(=O)N[C@@H](C)C(=O)N1CCC[C@H]1C(=O)N[C@@H](CCC(=O)O)C(=O)N[C@@H](CCCCNC(=O)COCCOCCNC(=O)COCCOCCNC(=O)CC[C@H](NC(=O)CCCCCCCCCCCCCCCCC(=O)O)C(=O)O)C(=O)N1CCC[C@H]1C(=O)N[C@@H](CCC(=O)O)C(=O)N[C@@H](CCC(=O)O)C(=O)N[C@@H](CC(=O)O)C(=O)N[C@@H](C)C(=O)N[C@@H](CO)C(=O)N1CCC[C@H]1C(=O)N[C@@H](CCC(=O)O)C(=O)N[C@@H](CCC(=O)O)C(=O)N[C@@H](CC(C)C)C(=O)N[C@@H](CCC(N)=O)C(=O)N[C@@H](CCCNC(=N)N)C(=O)N[C@@H](Cc1ccc(O)cc1)C(=O)N[C@@H](Cc1ccc(O)cc1)C(=O)N[C@H](C(=O)N[C@@H](CO)C(=O)N[C@@H](CC(C)C)C(=O)N[C@@H](CCCNC(=N)N)C(=O)N[C@@H](CCCCN)C(=O)N[C@@H](Cc1ccc(O)cc1)C(=O)N[C@@H](Cc1ccc(O)cc1)C(=O)N[C@@H](CC(N)=O)C(=O)N[C@@H](Cc1c[nH]c2ccccc12)C(=O)N[C@@H](CC(C)C)C(=O)N[C@H](C(=O)N[C@@H](CCCNC(=N)N)C(=O)N[C@@H](CCC(N)=O)C(=O)N[C@@H](CCCNC(=N)N)C(=O)N[C@@H](Cc1ccc(O)cc1)C(N)=O)[C@@H](C)O)C(C)C
Ki: 2.22 nM

Further lines, results first:

Ki: 3.09 nM
B1: Compound 16 (peptide)
peptide: Isovaleryl-APEK([AEEA-AEEA-γGlu-C18 diacid])PEEDASPEETQRYYVTLRHYYNWLTRQRY-NH2
SMILES: CC(C)CC(=O)N[C@@H](C)C(=O)N1CCC[C@H]1C(=O)N[C@@H](CCC(=O)O)C(=O)N[C@@H](CCCCNC(=O)COCCOCCNC(=O)COCCOCCNC(=O)CC[C@H](NC(=O)CCCCCCCCCCCCCCCCC(=O)O)C(=O)O)C(=O)N1CCC[C@H]1C(=O)N[C@@H](CCC(=O)O)C(=O)N[C@@H](CCC(=O)O)C(=O)N[C@@H](CC(=O)O)C(=O)N[C@@H](C)C(=O)N[C@@H](CO)C(=O)N1CCC[C@H]1C(=O)N[C@@H](CCC(=O)O)C(=O)N[C@@H](CCC(=O)O)C(=O)N[C@H](C(=O)N[C@@H](CCC(N)=O)C(=O)N[C@@H](CCCNC(=N)N)C(=O)N[C@@H](Cc1ccc(O)cc1)C(=O)N[C@@H](Cc1ccc(O)cc1)C(=O)N[C@H](C(=O)N[C@H](C(=O)N[C@@H](CC(C)C)C(=O)N[C@@H](CCCNC(=N)N)C(=O)N[C@@H](Cc1c[nH]cn1)C(=O)N[C@@H](Cc1ccc(O)cc1)C(=O)N[C@@H](Cc1ccc(O)cc1)C(=O)N[C@@H](CC(N)=O)C(=O)N[C@@H](Cc1c[nH]c2ccccc12)C(=O)N[C@@H](CC(C)C)C(=O)N[C@H](C(=O)N[C@@H](CCCNC(=N)N)C(=O)N[C@@H](CCC(N)=O)C(=O)N[C@@H](CCCNC(=N)N)C(=O)N[C@@H](Cc1ccc(O)cc1)C(N)=O)[C@@H](C)O)[C@@H](C)O)C(C)C)[C@@H](C)O

Ki: 0.93 nM
B4: Compound 17 (peptide)
peptide: Isovaleryl-APEK([AEEA-AEEA-γGlu-C18 diacid])PEEDASPAELQRYYVSLRHYYNWLTRQRY-NH2
SMILES: CC(C)CC(=O)N[C@@H](C)C(=O)N1CCC[C@H]1C(=O)N[C@@H](CCC(=O)O)C(=O)N[C@@H](CCCCNC(=O)COCCOCCNC(=O)COCCOCCNC(=O)CC[C@H](NC(=O)CCCCCCCCCCCCCCCCC(=O)O)C(=O)O)C(=O)N1CCC[C@H]1C(=O)N[C@@H](CCC(=O)O)C(=O)N[C@@H](CCC(=O)O)C(=O)N[C@@H](CC(=O)O)C(=O)N[C@@H](C)C(=O)N[C@@H](CO)C(=O)N1CCC[C@H]1C(=O)N[C@@H](C)C(=O)N[C@@H](CCC(=O)O)C(=O)N[C@@H](CC(C)C)C(=O)N[C@@H](CCC(N)=O)C(=O)N[C@@H](CCCNC(=N)N)C(=O)N[C@@H](Cc1ccc(O)cc1)C(=O)N[C@@H](Cc1ccc(O)cc1)C(=O)N[C@H](C(=O)N[C@@H](CO)C(=O)N[C@@H](CC(C)C)C(=O)N[C@@H](CCCNC(=N)N)C(=O)N[C@@H](Cc1c[nH]cn1)C(=O)N[C@@H](Cc1ccc(O)cc1)C(=O)N[C@@H](Cc1ccc(O)cc1)C(=O)N[C@@H](CC(N)=O)C(=O)N[C@@H](Cc1c[nH]c2ccccc12)C(=O)N[C@@H](CC(C)C)C(=O)N[C@H](C(=O)N[C@@H](CCCNC(=N)N)C(=O)N[C@@H](CCC(N)=O)C(=O)N[C@@H](CCCNC(=N)N)C(=O)N[C@@H](Cc1ccc(O)cc1)C(N)=O)[C@@H](C)O)C(C)C

Reference: patent publication US20210139548A1 (published 2021)
